From US20030152959A1 (WISCONSIN ALUMNI RESEARCH FOUNDATION, published 2003) come the findings set out here.

In this experiment the target is T1, estrogen receptor α (ERα) (human, UniProt P03372 1-595).
T1 construct: Used as 35S-methionine-labelled protein from rabbit reticulocyte lysate, as purified recombinant ERα, and in whole-cell extract of transfected COS cells; also called NR3A1
T1 sequence (looked up): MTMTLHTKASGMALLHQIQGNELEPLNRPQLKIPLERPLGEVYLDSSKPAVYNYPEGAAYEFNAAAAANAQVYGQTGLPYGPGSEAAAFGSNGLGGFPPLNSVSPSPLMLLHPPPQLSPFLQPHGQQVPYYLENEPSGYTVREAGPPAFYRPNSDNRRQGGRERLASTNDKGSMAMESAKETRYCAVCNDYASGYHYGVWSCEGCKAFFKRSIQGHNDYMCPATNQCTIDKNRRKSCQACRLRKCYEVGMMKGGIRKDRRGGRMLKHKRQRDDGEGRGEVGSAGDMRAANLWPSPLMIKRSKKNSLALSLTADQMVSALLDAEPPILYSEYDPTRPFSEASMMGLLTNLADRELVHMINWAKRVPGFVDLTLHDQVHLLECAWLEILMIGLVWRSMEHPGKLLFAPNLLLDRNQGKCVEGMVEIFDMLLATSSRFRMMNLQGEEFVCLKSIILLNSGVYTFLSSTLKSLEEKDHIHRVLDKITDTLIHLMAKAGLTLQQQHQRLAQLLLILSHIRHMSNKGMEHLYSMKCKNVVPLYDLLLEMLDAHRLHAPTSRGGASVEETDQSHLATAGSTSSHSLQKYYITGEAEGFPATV
Kind of experiment: GST-fusion protein binding experiment with purified recombinant ERα (data referred to Johnston 1996 thesis).

B1: GST-TFIIB (other, UniProt Q00403 1-316, looked up)
chain: MASTSRLDALPRVTCPNHPDAILVEDYRAGDMICPECGLVVGDRVIDVGSEWRTFSNDKATKDPSRVGDSQNPLLSDGDLSTMIGKGTGAASFDEFGNSKYQNRRTMSSSDRAMMNAFKEITTMADRINLPRNIVDRTNNLFKQVYEQKSLKGRANDAIASACLYIACRQEGVPRTFKEICAVSRISKKEIGRCFKLILKALETSVDLITTGDFMSRFCSNLCLPKQVQMAATHIARKAVELDLVPGRSPISVAAAAIYMASQASAEKRTQKEIGDIAGVADVTIRQSYRLIYPRAPDLFPTDFKFDTPVDKLPQL
notes: not shown: glutathione S-transferase encoded by the pGEX vector
Consider B1, for which the binding result is given as “binds”.
